Numbering of substitutions follows the chain as printed.
T1: his-tagged soluble human OX40 (huOX40-6xhis) (human, UniProt P43489 29-214)
T1 construct: made in-house; also called Human-OX40-6XHIS; hOX40; not shown: hexahistidine tag
T1 sequence: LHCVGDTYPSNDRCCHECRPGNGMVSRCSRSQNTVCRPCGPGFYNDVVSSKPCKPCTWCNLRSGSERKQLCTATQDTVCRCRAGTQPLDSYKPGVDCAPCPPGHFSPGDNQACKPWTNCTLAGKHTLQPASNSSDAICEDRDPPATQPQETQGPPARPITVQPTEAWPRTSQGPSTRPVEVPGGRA

T2: human OX40 on cells (human, UniProt P43489 29-277)
T2 sequence: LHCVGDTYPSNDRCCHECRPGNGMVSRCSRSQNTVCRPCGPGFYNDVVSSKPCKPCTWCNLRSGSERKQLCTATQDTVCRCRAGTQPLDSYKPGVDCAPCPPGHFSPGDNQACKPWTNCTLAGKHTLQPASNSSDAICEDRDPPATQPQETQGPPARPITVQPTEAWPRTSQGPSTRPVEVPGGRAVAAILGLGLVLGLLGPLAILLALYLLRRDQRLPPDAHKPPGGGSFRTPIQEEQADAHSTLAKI

T3: cynomolgus OX40 on cells (cynomolgus, UniProt P43489 29-277 (human entry))
T3 construct: also called cynoOX40-CHO
T3 chain: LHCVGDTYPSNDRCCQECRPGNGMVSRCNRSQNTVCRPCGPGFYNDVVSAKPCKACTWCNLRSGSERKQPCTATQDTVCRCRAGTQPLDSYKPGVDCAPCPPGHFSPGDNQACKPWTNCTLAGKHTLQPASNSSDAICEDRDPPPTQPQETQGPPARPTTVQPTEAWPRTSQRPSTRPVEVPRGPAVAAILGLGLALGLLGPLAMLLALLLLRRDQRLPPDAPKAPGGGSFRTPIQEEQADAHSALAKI

B1: 8B11 (antibody, V domains shown)
VH: EIQLVQSGGGLVHPGGSLRLSCAGSGFTFSSDAMYWVRQAPGKGLEWVSAIGIGGDTYYTDSVMGRFTISRDNAKNSLYLQMNSLRAEDMAVYYCARLGMGYYFDYWGQGTLVTVSS
VL: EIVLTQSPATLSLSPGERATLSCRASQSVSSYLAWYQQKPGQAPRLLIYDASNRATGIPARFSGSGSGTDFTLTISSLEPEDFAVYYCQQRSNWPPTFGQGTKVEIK
notes: also called 8B11.H9.C1; 8B11.H9
B2: 23H3 (antibody, V domains shown)
VH: B1 VH with I2V, S31N, D32Y, Y58F, M64K, Y79S, L98M, M100T, Y103F
VL: EIVLTQSPATLSLSPGERATLSCRASQSVSSYLAWYQQKPGQAPRLLIYDASNRATGIPARFSGSGSGTDFTLTISSLEPEDFAVYYCQQRSNWPLTFGPGTKVDIK
notes: also called 23H3.C6
B3: 3F4 (antibody, V domains shown)
VH: QVQLVQSGAEVKKPGASVKVSCKASGNTFTSYDVNWVRQATGQGLEWMGWMNPNSGNTGYAPKFQGRVTMTRNTSISTAYMELSSLRSEDTAVYYCARIYSSSYNWFDPWGQGTLVTVSS
VL: B2 VL with P100G, D105E
notes: also called 3F4.G11.D2; 3F4.G11
B4: 6E1 (antibody, V domains shown)
VH: QVQLVESGGGVVQPGRSLRLSCAASGFTFSSFAMHWVRQAPGKGLEWVTVISYDGSIKYYTDSVKGRFTFSRDNSKNTLYLQMNSLRAEDTAVYYCTRDGNYGSARYFQHWGQGTLVTVSS
VL: B2 VL with L96Y, P100Q, V104L, D105E
notes: also called 6E1.A12.A2; 6E1.A12
B5: OX40.18 (antibody, human IgG1, kappa, V domains shown)
VH: B3 VH with N27Y, N73D, P109Y
VL: EIVLTQSPATLSLSPGERATLSCRASQSVSSYLAWYQQKPGQAPRLLIYDASNRATGIPARFSGSGSGTDFTLTISSLEPEDFAVYYCQQRSNWPLTFGGGTKVEIKR
notes: g1f
B6: OX40.17 (antibody, human IgG1, kappa, V domains shown)
VH: EVQLVESGGGLVQPGGSLRLSCAASGFTFSSYDMHWVRQTTGKGLEWVSVIGTAGDTYYPGSVKGRFTISRENAKNSLYLQMNSLRAGDTAVYYCARGGMGNYFDYWGQGTLVTVSS
VL: B5 VL

Experiments:
[1] = biological target: T1, his-tagged soluble human OX40 …; assay: SPR, mAb captured on anti-human CH1, OX40-6XHIS analyte, 1:1 fit
Procedure: The affinity of several OX40 antibodies for soluble human OX40 was tested by SPR analysis. […] Human-OX40-6XHIS antigen in either a single concentration of 400 nM or a 1:2 serial dilution from 400 nM was used. Experiments were carried out on BIACORE® T200 or BIACORE® 3000 SPR instruments. Data was fit to a 1:1 model.

human OX40 on cells [2] = biological target: T2, human OX40 on cells; assay: cell-based or functional assay
human OX40 on cells [3] = biological target: T2, human OX40 on cells; assay: FACS, activated human T cells; mean ± SD, n=2
Procedure: (§1) Cells were activated for several days before the binding assay in order to induce OX40 expression. Briefly, PBMCs were cultured for three or four days with magnetic beads coated with anti-human CD3 plus anti-human CD28, in the presence of recombinant human IL-2. On the day of the assay, the beads were removed and the cells stained with a titration of each anti-OX40 antibody. Bound antibodies were detected with a fluorescently conjugated anti-human IgG polyclonal secondary antibody, and the cells were co-stained for CD4 and CD25 to detect activated CD4 T cells. The fluorescence intensity of the staining was measured using a FACSCanto II flow cytometer (Becton Dickinson). The geometric mean fluorescence intensity (GMFI) or median fluorescence intensity (MedFI) of anti-OX40 antibody staining was calculated for the CD4+CD25+ population (FACSDiva software). EC₅₀s for antibody binding were calculated using GraphPad Prism software.

human OX40 on cells [4] = biological target: T2, human OX40 on cells; assay: FACS competition on HT1080-hOX40 cells against APC-OX40.1 (FL2 MFI); the table gives no unit, axis 'Ab conc nM'
Procedure: (§2) This experiment was performed to test the cross-blocking properties of various anti-OX40 antibodies to assess binding specificities. […] Cells were washed and if necessary further incubated in the presence of streptavidin-APC conjugate under the same conditions. After the final wash, cells were analyzed on a FACSCanto flow cytometer (BD Bioscience, San Jose, Calif.). Mean fluorescence intensity (MFI) signal was proportional to bound conjugated antibody.

cynomolgus OX40 on cells [5] = biological target: T3, cynomolgus OX40 on cells; assay: FACS, activated cyno T cells; mean ± SD, n=4
Procedure: (§3) Briefly, cells were activated for several days before the binding assay in order to induce OX40 expression. Total leukocytes were isolated from cynomolgus macaque peripheral blood by lysis of red blood cells using an ammonium chloride buffer. The leukocytes were then cultured for four to five days with in flasks pre-coated with anti-human CD3 plus anti-human CD28 antibodies that cross-react with cynomolgus macaque, in the presence of recombinant human IL-2, in order to expand and activate T cells. On the day of the assay, the cells were harvested and stained with a titration of each anti-OX40 antibody. Bound antibodies were detected with a fluorescently conjugated anti-human IgG polyclonal secondary antibody, and the cells were co-stained for CD4 and CD25 to detect activated CD4 T cells. The fluorescence intensity of the staining was measured using a FACSCanto II flow cytometer (Becton Dickinson). The geometric mean fluorescence intensity (GMFI) or median fluorescence intensity (MedFI) of anti-OX40 antibody staining was calculated for the CD4+CD25+ population (FACSDiva software). Dose-response curves were generated and EC50s for antibody binding were calculated using GraphPad Prism software.

human OX40 on cells [6] = biological target: T2, human OX40 on cells; assay: FACS, blocking of OX40L-His (0.2 µg/mL) binding to hOX40-293 cells
Procedure: Briefly, 293 cells stably transfected with human OX40 were first pre-incubated with varying concentrations of anti-OX40 antibodies. […] The fluorescence intensity of the staining was measured using a FACSCanto II flow cytometer (Becton Dickinson).

human OX40 on cells [7] = biological target: T2, human OX40 on cells; assay: FACS, activated human T cells; mean ± SD, n=3
Procedure: as §1

human OX40 on cells [8] = biological target: T2, human OX40 on cells; assay: FACS competition on hOX40-293 cells against biotin-OX40.5 (spike biotOX.5 @ 0.4 ug/mL, streptavidin-APC); FL4-MFI falls from about 8700 to about 4100; the table gives no unit, axis in nM
Procedure: as §2

human OX40 on cells [9] = biological target: T2, human OX40 on cells; assay: FACS competition on hOX40-293 cells against biotin-OX40.5 (spike biotOX.5 @ 0.4 ug/mL, streptavidin-APC); partial inhibition, FL4-MFI falls from about 8700 to about 6400; the table gives no unit, axis in nM
Procedure: as §2

human OX40 on cells [10] = biological target: T2, human OX40 on cells; assay: FACS competition on HT1080-hOX40 cells against APC-OX40.1 (FL2 MFI); the table gives no unit, axis 'Ab conc nM'; NOTE: the curve of this antibody is flat at about 18000 (no inhibition), the printed fit value has no meaning as a potency
Procedure: as §2

human OX40 on cells [11] = biological target: T2, human OX40 on cells; assay: cell-based or functional assay; remark: listed apart in the source
cynomolgus OX40 on cells [12] = biological target: T3, cynomolgus OX40 on cells; assay: FACS, activated cyno T cells; mean ± SD, n=3
Procedure: as §3

cynomolgus OX40 on cells [13] = biological target: T3, cynomolgus OX40 on cells; assay: FACS, activated primary cynomolgus macaque CD4+/CD25+ T cells, purified recombinant antibody, fluorescent anti-human IgG secondary (APC GMFI)
Procedure: as §3
The same experiment was performed with anti-OX40 antibodies with variable region substitutions.

human OX40 on cells [14] = biological target: T2, human OX40 on cells; assay: FACS, activated primary human CD4+/CD25+ T cells, purified recombinant antibody, fluorescent anti-human IgG secondary (APC GMFI)
Procedure: as §1

Binder | Kd [1] | koff [1] | kon [1] | Proliferation EC50, CD4 T cells + CHO-CD3-CD32A (human OX40 on cells [2]) | EC50 (human OX40 on cells [3]) | IC50 (human OX40 on cells [4]) | EC50 (cynomolgus OX40 on cells [5]) | EC50 (human OX40 on cells [6]) | EC50 (human OX40 on cells [7]) | IFNγ EC50, CD4 T cells + CHO-CD3-CD32A (human OX40 on cells [2]) | IL-2 EC50, SEB PBMC, donor BMS-001 (human OX40 on cells [11]) | IL-2 EC50, SEB PBMC, donor BMS-004 (human OX40 on cells [11]) | IL-2 EC50, SEB PBMC, donor BMS-009 (human OX40 on cells [11]) | IL-2 EC50, SEB PBMC, donor BMS-012 (human OX40 on cells [11]) | IL-2 EC50, SEB PBMC, donor BMS-015 (human OX40 on cells [11]) | IL-2 EC50, SEB PBMC, donor BMS-016 (human OX40 on cells [11]) | IL-2 EC50, SEB PBMC, donor WB10024 (human OX40 on cells [11]) | IL-2 EC50, SEB PBMC, donor WB10025 (human OX40 on cells [11]) | IL-2 EC50, SEB PBMC, donor WB10026 (human OX40 on cells [11]) | IL-2 EC50, SEB PBMC, donor WB10027 (human OX40 on cells [11]) | other results
B1 | 10.5 nM | 0.00051 s⁻¹ | 48000 M⁻¹ s⁻¹ | 0.022 nM | 0.14 nM | 1.41 nM | 0.2 nM | 0.45 nM |  |  |  |  |  |  |  |  |  |  |  |  | 
B2 | 3.6 nM | 0.000395 s⁻¹ | 110000 M⁻¹ s⁻¹ | 0.028 nM |  |  | 0.18 nM | 0.38 nM | 0.15 nM |  |  |  |  |  |  |  |  |  |  |  | EC50 (human OX40 on cells [8]): 3.68 nM
B3 | 7.13 nM | 0.000379 s⁻¹ | 53100 M⁻¹ s⁻¹ | 0.016 nM |  | 0.706 nM | 0.37 nM | 0.54 nM | 0.19 nM |  |  |  |  |  |  |  |  |  |  |  | EC50 (human OX40 on cells [9]): 3.71 nM
B4 | 11 nM | 0.00141 s⁻¹ | 128000 M⁻¹ s⁻¹ | 0.014 nM | 0.97 nM |  | 0.77 nM |  |  |  |  |  |  |  |  |  |  |  |  |  | IC50 (human OX40 on cells [10]): ~2.49 pM
B5 |  |  |  | 0.23 nM | 3.15 nM |  |  |  |  | 0.49 nM | ~84.8 nM | 2.43 nM | 3.21 nM | ~1.67 nM | > 100 nM | > 100 nM | ~3.17 nM | ~1.14 nM | 3.02 nM | ~3.27 nM | IL-2 EC50, SEB PBMC, donor WB10137 (human OX40 on cells [11]): > 100 nM; IL-2 Mean EC50, SEB PBMC, all donors (human OX40 on cells [11]): 2.89 nM
B6 |  |  |  | 0.009 nM |  |  |  |  | 0.26 nM | 0.044 nM | 0.41 nM | 1.03 nM | 0.97 nM | 1.74 nM | 1.16 nM | 1.4 nM | 1.06 nM | 1.35 nM | 1.68 nM | 1.15 nM | EC50 (cynomolgus OX40 on cells [12]): 0.52 nM; EC50 (read off the curve) (cynomolgus OX40 on cells [13]): ~0.4 nM; IL-2 EC50, SEB PBMC, donor WB10137 (human OX40 on cells [11]): 0.92 nM; IL-2 Mean EC50, SEB PBMC, all donors (human OX40 on cells [11]): 1.17 nM; EC50 (read off the curve) (human OX40 on cells [14]): ~0.2 nM

Reference: US20200399385A1 (Bristol-Myers Squibb, published 2020)
